In experiment [1] the target is VcaM4I HNH domain H224A variant (residues 179-309) (Vibrio campbellii). The experiment can be described thus: SEC; Superdex 75 10/300 GL, 15 mM Tris-HCl (pH 8.5), 0.3 M NaCl, 1 mM TCEP; bovine serum albumin, ovalbumin, myoglobin and vitamin B12 as molecular mass standards. (In gel filtration, larger molecules generally elute earlier.)
Experiment [2] deals with VcaM4I Helix-HNH fragment (residues 148-309) (Vibrio campbellii). The description is as above.

Drawing on article PMC7897488, this text covers stoichiometry N for two substances.

“VcaM4I HNH domain H224A variant (residues 179-309) (domain or fragment)” returned a stoichiometry N in experiment [1] of 2. With “VcaM4I Helix-HNH fragment (residues 148-309) (domain or fragment)”, in experiment [2], the stoichiometry N was 2.

What is called stoichiometry N is a count of units in the complex or per binding partner.
